Sequences and labels used below:
B1: H4H2564S (antibody, V domains shown)
VH: EVQLVESGGGLVQPGGSLRLSCAASGITFSSFVMNWVRQAPGKGLEWVSVISGSGGSTYYADSVKGRFTISRDNSKNTLYLQMNSLRAEDTAVYYCAKGGLRWFPFDYWGQGTLVTVSS
VL: not shown
B2: H4H2530S (antibody, V domains shown)
VH: EVQLVESGPGLVKPSQTLSLTCTVSGGSINSGGSYWSWIRQHPGKGLEWIGYIYSSGNTYYKPSLKSRVTISLDTSKNQFSLKMSSVTAADTAIYYCARDPRGITGTHYFDYWGQGTTVTVSS
VL: EIVLTQSPGTLSLSPGERATLSCRTSQSISNKYLAWYQQKPGQAPRLLIYGASTRATGIPDRFSGSGSGTDFTLTISRLEPEDFAVYYCQQFGTSLFTFGPGTKVEIK
B3: H4H2524P (antibody, V domains shown)
VH: QVQLQESGPGLVKPSQTLSLTCTVSGGSISSDGYYWSWIRQHPGKGLEWIGYIYYSGNTYYNPSLKSRVTISVDTSKNHFSLKLSSVTAADTAVYYCTRDPRGITGTHYFDYWGQGTLVTVSS
VL: B2 VL with I29V, N31S, K32S, T54S, E106D
B4: H4H2477N2 (antibody, V domains shown)
VH: QVQLQQWGAGLLKPSETLSLTCAVYGGSFSDYYWSWIRQPPGKGLEWIGEINHRGNTNYNPSLKSRVTISVDTSKNQFSLKLRSVTAADMAVYYCARIQLWLRGYDYYGMDVWGQGTTVTVSS
VL: DIQMTQSPSSLSASVGDRVTITCRASQGIRNDLGWYQQKPGKAPKRLIYAASSLQGGVPSRFSGSGSGTEFSLTISSLQPEDFASYYCLQHNTYPWTFGQGTKVEIK
B5: H4H2718N (antibody, V domains shown)
VH: EVQLVESGGGLVQPGRSLRLSCAASGFTFDEYAMHWVRQVPGKGLEWVSGISRNSGTIGYVDSVLGRFTISRDNAKNSLYLQMNSLRPEDTALYYCAKDKGWLLGMDVWGQGTTVTVSS
VL: B4 VL with G28A, G56S, S72A, S85T, H91Y, T93S, P95L, W96Y, V104L
B6: H4H2490N2 (antibody, V domains shown)
VH: QVQLVQSGADVKWPGASVKVSCRASGYTFTGYYMHWVRQAPGQGLEWMGWINPNNGGTNYAQKFQGRVTMTRDTSITTVYMELSSLISDDTAVYYCARGEDLELRNYYYYGMDVWGQGTSVTVSS
VL: DIQMTQSPSSLSASVGDRVTITCRASQSISSYLNWYQQKPGKAPKLLIYAASNLQSGVPSRFSGSGFGTDFTLTISSLQSEDFATYYCQQTYSTRTFGRGTKVEIK
B7: H4H2497N (antibody, V domains shown)
VH: QVQLVESGGGVVQPGRSLRLSCAASGFTFSTYGMDWVRQAPGKGLEWVAVISYDGRNKNYVDSVKGRFTISRDNSKNTLYLQMNSLRAEDSAVYFCAKEGGLGTWYFDLWGRGTLVTVSS
VL: not shown
B8: H4H2480N (antibody, V domains shown)
VH: QVQLQQWGAGLLKPSETLSLTCAVYGGSFSGYYWSWIRQTPGKGLEWIGEISHSGNNNYNPSLKSRVTMSKDTSKNQFSLKLSSVTAADTAVYYCARIQLWLRGNDYYGMDVWGQGITVTVSS
VL: B4 VL with S72T, S85T, T93S

Residue numbers refer to the chain shown, from its start.

The target in one assay is T1, scHLA-B27-mmH (engineered HLA-B*27 ectodomain in-line fusion protein) (human (HLA-B*2705, beta-2 …)).
T1 construct: also called soluble HLA-B*27 fusion protein
The experiment in a line: SPR (Biacore), 25 C, PBS pH 7.2.
As a reminder, the Kd is the free concentration of one partner at which half of the binding sites on the other are occupied at equilibrium, for simple one-to-one binding. As for B1, the Kd turned out to be 8.84 nM.

Consider B2, for which the affinity, expressed as Kd, was 0.668 nM.

The molecule B3 came in with a Kd of 69 nM.

B4 gave a Kd of 44 nM.

Consider B5, for which the Kd amounted to 97.3 nM.

Turning to B6, the Kd worked out at 239 nM.

B7: the Kd was 22.3 nM.

The next assay addresses T1, scHLA-B27-mmH (engineered HLA-B*27 …). The experiment in a line: SPR (Biacore), 25 C, PBS pH 5.75. Background: SPR reads the build-up and loss of mass on a sensor chip optically.
B1 yielded a Kd of 74.8 nM.

Turning to B2, binding was characterised by a dissociation constant (Kd) of 10.7 nM.

The molecule B3 had a Kd of 204 nM.

Molecule B4 registered a Kd of 160 nM.

For B8, the Kd worked out at 129 nM.

As for B5, the equilibrium dissociation constant (Kd) was 97.5 nM.

As to B6, the Kd stood at 237 nM.

B7 displayed a Kd of 33.9 nM.

A further assay shares this target. The assay can be described thus: SPR (Biacore), mAb captured, 25 C, PBS pH 7.2.
With B1, the Kd is 8.84 nM and the t1/2 was found to be 20 min.

B2 had a Kd of 0.668 nM and a t1/2 of 43 min.

In turn, B3 gave a Kd of 69 nM and a t1/2 of 1 min.

In turn, B4 showed a Kd of 44 nM and a t1/2 of 20 min.

B5 had a Kd of 97.3 nM and a t1/2 of 4 min.

With B6, the Kd came to 239 nM and the t1/2 worked out at 2 min.

B7 came in with a Kd of 22.3 nM and a t1/2 of 23 min.

Another assay shares this target. The experiment in a line: SPR (Biacore), mAb captured, 25 C, PBS pH 5.75.
Molecule B1 showed a Kd of 74.8 nM and a t1/2 of 3 min.

Regarding B2, the Kd is 10.7 nM and the t1/2 amounted to 15 min.

With B3, the affinity, expressed as Kd, was 204 nM and the t1/2 amounted to 2 min.

B4 gave a Kd of 160 nM and a t1/2 of 5 min.

B8 yielded a Kd of 129 nM and a t1/2 of 5 min.

In turn, B5 came in with a Kd of 97.5 nM and a t1/2 of 4 min.

B6: the Kd worked out at 237 nM and the t1/2 is 2 min.

Molecule B7 registered a Kd of 33.9 nM and a t1/2 of 12 min.

The target is the same in the next assay. The experiment in a line: SPR (Biacore), mAb captured, 25 C, HBST pH 7.4.
On to B1, for which the Kd was determined as 3.57 nM and the t1/2 came out at 19 min.

For B2, the Kd came to 1.22 nM and the t1/2 was determined as 16 min.

Molecule B3 yielded a Kd of 23.9 nM and a t1/2 of 2 min.

In the case of B4, the Kd was 16.9 nM and the t1/2 was 11 min.

As to B8, binding was characterised by a dissociation constant (Kd) of 24 nM and the t1/2 worked out at 9 min.

As to B5, the Kd was 44.9 nM and the t1/2 was found to be 4 min.

Molecule B6 came in with a Kd of 259 nM and a t1/2 of 1 min.

In the case of B7, binding was characterised by a dissociation constant (Kd) of 33.6 nM and the t1/2 was 12 min.

A further assay shares this target. The assay can be described thus: SPR (Biacore), mAb captured, 37 C, HBST pH 7.4.
B1 showed an equilibrium dissociation constant (Kd) of 7.17 nM and a t1/2 of 9 min.

On to B2, for which the affinity, expressed as Kd, was 1.88 nM and the t1/2 was found to be 6 min.

B3 yielded a Kd of 26.8 nM and a t1/2 of 2 min.

As to B4, the Kd is 47 nM and the t1/2 was found to be 3 min.

As for B5, the Kd stood at 29 nM and the t1/2 worked out at 3 min.

Turning to B6, the Kd turned out to be 360 nM and the t1/2 amounted to 1 min.

For B7, binding was put at a Kd of 337 nM and the t1/2 was found to be 3 min.

The target is the same in a further assay. The experiment in a line: SPR (Biacore), mAb captured, 25 C, PBS pH 7.2; 25 C, PBS pH 7.2.
B8 returned a t1/2 of 18 min.

For the origin of these results see patent US20130259876A1 (Regeneron, published 2013).
